Data: article PMC5779228

Target: His-tagged dimeric ϕO11 Dut (S. aureus phage ϕO11)
Assay: crystal structure; ϕO11 Dut (10 mg/ml) with 0.5 mM dUPNPP and 5 mM MgCl2; sitting drop at 21°C; 0.2 M magnesium chloride, 0.1 M Tris-HCl pH 8.5, 20% PEG 8000; 2.1 Å

Substance: His-tagged dimeric ϕO11 Dut (enzyme)
- stoichiometry N: 2
